Experimental data as given in paper PMC5821828, “A Genetic Screen for Investigating the Human Lysosomal CystineTransporter, Cystinosin” (Scientific Reports, 2018).
Residue numbers refer to the chain shown, from its start. Names may count otherwise.

B1: CTNS WT (human cystinosin with GYDQL motif) (Homo sapiens) (protein)
chain: SVSLTVPPVVKLENGSSTNVSLTLRPPLNATLVITFEITFRSKNITILELPDEVVVPPGVTNSSFQVTSQNVGQLTVYLHGNHSNQTGPRIRFLVIRSSAISIINQVIGWIYFVAWSISFYPQVIMNWRRKSVIGLSFDFVALNLTGFVAYSVFNIGLLWVPYIKEQFLLKYPNGVNPVNSNDVFFSLHAVVLTLIIIVQCCLYERGGQRVSWPAIGFLVLAWLFAFVTMIVAAVGVTTWLQFLFCFSYIKLAVTLVKYFPQAYMNFYYKSTEGWSIGNVLLDFTGGSFSLLQMFLQSYNNDQWTLIFGDPTKFGLGVFSIVFDVVFFIQHFCLYRKRPGYDQLN
notes: full-length, untagged, plasmid p416TEF (TEF-CTNS, ABE 3006), expressed in S. cerevisiae vps1Δvps17Δ; uptake across plasma membrane
B2: CTNS-Δgydql (Homo sapiens; G197R) (protein)
chain: SVSLTVPPVVKLENGSSTNVSLTLRPPLNATLVITFEITFRSKNITILELPDEVVVPPGVTNSSFQVTSQNVGQLTVYLHGNHSNQTGPRIRFLVIRSSAISIINQVIGWIYFVAWSISFYPQVIMNWRRKSVIGLSFDFVALNLTGFVAYSVFNIGLLWVPYIKEQFLLKYPNRVNPVNSNDVFFSLHAVVLTLIIIVQCCLYERGGQRVSWPAIGFLVLAWLFAFVTMIVAAVGVTTWLQFLFCFSYIKLAVTLVKYFPQAYMNFYYKSTEGWSIGNVLLDFTGGSFSLLQMFLQSYNNDQWTLIFGDPTKFGLGVFSIVFDVVFFIQHFCLYRKRP
notes: lacks C-terminal GYDQLN (lysosomal targeting motif; Y363 and L366), untagged, p416TEF (ABE 3513), expressed in S. cerevisiae vps1Δvps17Δ (ABC 5017)
B3: CTNS-Δgydql (Homo sapiens; G309C) (protein)
chain: B2 chain with R175G, G287C
notes: as for B2
B4: CTNS-Δgydql (Homo sapiens; G131S) (protein)
chain: B2 chain with G109S, R175G
notes: as for B2
B5: CTNS-Δgydql (Homo sapiens; S270T) (protein)
chain: B2 chain with R175G, S248T
notes: as for B2

Tested on: T1, N[C@@H](CSSC[C@H](N)C(=O)O)C(=O)O
T1 construct: lacks C-terminal GYDQLN (lysosomal targeting motif; Y363 and L366), untagged, p416TEF (ABE 3513), expressed in S. cerevisiae vps1Δvps17Δ (ABC 5017)
Assay: cells, lysate or membranes
Format: cell-based, Homo sapiens
Settings: pH 5.5 (MES), 2% glucose, 30 °C, vps1Δvps17Δ yeast, labelled compound

| Molecule | Km |
| --- | --- |
| CTNS-Δgydql (Homo sapiens; DEL362-367) | 254.4 ± 61 µM |

Substrate: N[C@@H](CSSC[C@H](N)C(=O)O)C(=O)O
Assay: cells, lysate or membranes
Format: cell-based, Homo sapiens
Settings: pH 5.5 (MES), 2% glucose, 30 °C, vps1Δvps17Δ yeast, labelled compound

| Molecule | Km |
| --- | --- |
| B1 | 400 ± 133 µM |
| B2 | 97.3 ± 30.9 µM |
| B3 | 124.8 ± 23.5 µM |
| B4 | 130.4 ± 10.9 µM |
| B5 | 207.2 ± 41.5 µM |
